Assay [1] relates to constitutively high plasma ACTH in Mrap1 KO mice. The experiment in a line: Mrap1 KO mice constitutively high ACTH model. Type of assay: in vivo, mouse. As to conditions: for plasma ACTH concentrations in Mrap1 KO mice: single dose 20 mg/kg. As to the method:
8-10 week old wildtype female C57BL/6 mice were obtained from Charles River Laboratories. Mrap1 KO mice were obtained from Queen Mary University of London, UK. SSR125543A, a small molecule CRHR1 antagonist, was obtained from Axon Medchem (Cat #Axon 1799). Mouse Corticosterone (55-Corms-E01) and adrenocorticotropic hormone (ACTH) ELISA kits (21-ACTHU-E01) were obtained from ALPCO, USA. All procedures were carried out in accordance with the Guide for the Care and Use of Laboratory Animals of the National Institutes of Health. Protocols were approved by Charles River Laboratories Institutional Animal Care and Use Committee (IACUC).
To generate Mrap1 KO mice, Mrap1−/− male mice were bred with Mrap1+/− female mice. Corticosterone hormone replacement was performed by administering 50 μg/ml in drinking water to breeder cages when female mice were pregnant and their pregnancies palpable (approximately embryonic day 10). Drinking water was changed weekly, and treatment was stopped at weaning. Mice were uniquely identified with ear tags at the time of tail clipping to match future genotype with each mouse. DNA was extracted from tail tissue and used to genotype mice.
[…] On day 2 or 3, 14 and 28, 200 μl of blood was collected in EDTA tubes from the submandibular vein of each mouse. Plasma was separated using a refrigerated centrifuge (4° C. at 500×g for 10 min) and snap-frozen in dry ice for subsequent ACTH ELISA measurement.

Assay [2] has as its system mouse CRHR2. The experiment in a line: CRH-induced luciferase reporter blocking assay, CHO-CRE-mCRHR2 cells. The assay is classed as cell-based. The conditions noted are these: CHO-CRE-mCRHR2 cells, 5 nM CRH. In outline: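 CHO-CRE cells stably expressing mouse CRHR2 were seeded overnight, then given serially diluted antibodies (8 points, 1:4) together with CRH at 5 nM final. After 4–6 h at 37 °C, CRE-driven luciferase was read by Bio-Glo luminescence.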
(Reporter assays use an easily measured gene product as a stand-in for the process of interest.)

The target of assay [3] is T1, biotinylated CRH (Homo sapiens, UniProt P06850).
T1 construct: purchased GL Biochem 784751
T1 sequence (P06850 154-194): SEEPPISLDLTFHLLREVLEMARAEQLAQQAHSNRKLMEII
The experiment in a line: Affinity determination with Octet. Type of assay: binding. In outline: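 Biolayer interferometry: 30 nM biotinylated CRH loaded onto streptavidin sensors, 2-fold antibody dilutions as analyte in PBS kinetics buffer. Association 180 s, dissociation 800 s, glycine pH 1.5 regeneration; double-referenced data fitted for affinity.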
In general terms: BLI is a label-free optical method that tracks binding on a fibre tip over time.

Assay [4] deals with human CRHR2. The experiment in a line: CRH-induced luciferase reporter blocking assay, CHO-CRE-hCRHR2 cells. Type of assay: cell-based. The conditions noted are these: CHO-CRE-hCRHR2 cells, 0.1 nM CRH. In a few lines:
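CHO-CRE reporter cells stably expressing mouse or human CRHR2 were treated with serially diluted antibodies (8 points, 1:4) plus CRH at final 5 nM (mCRHR2) or 0.1 nM (hCRHR2), 4-6 hours at 37° C. CRE-driven luciferase read by luminescence after 10 min with detection reagent.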

B1: PR302334-24: humanized variant of Series 9 mAb PR302334; VH SEQ ID NO: 275, VL SEQ ID NO: 328 (antibody, V domains shown)
VH: EVQLVESGGGLVKPGGSLRLSCAASGFTFSTYAMSWVRQAPGKGLEWVASIRSGGTTYYPDSVKGRFTISRDNAKNSLYLQMNSLRAEDTAVYYCTRGIDWGQGTTVTVSS
VL: DIVMTQSPDSLAVSLGERATINCKASQSVNNDVAWYQQKPGQPPRLLIYYASNRYTGVPDRFSGSGSGTDFTLTISSLQAEDLAVYFCQQDYSSWTFGGGTKVEIK
modifications: PR302334-16 VH, PR302334-24 VH, PR302334-25 VH; PR302334-10 VL, PR302334-24 VL, PR302334-26 VL, PR302334-4 VL
For orientation: IC50 means the concentration that inhibits the measured activity by half. Higher therefore signals weaker potency in that assay. Broadly, the kon is the second-order rate constant of association. Higher therefore signals fast association. With B1, the “inhibition of ACTH versus SSR125543A” value in assay [1] (Mrap1 KO mice) is reported as “more complete inhibition”. Also, the “efficacy versus SSR125543A, ACTH levels” value in assay [1] (Mrap1 KO mice, day 2 and day 14, figure legend, doses not given) was “superior efficacy”. For the same molecule, the “efficacy in reducing plasma ACTH levels versus SSR125543A at 30 mg/kg” value in assay [1] (Mrap1 KO mice, mAb 5 mg/kg) was “more efficacious”; in assay [1] (Mrap1 KO mice, mAb 10 mg/kg), “more efficacious”; in assay [1] (Mrap1 KO mice, mAb 20 mg/kg), “more efficacious”. Further, the “plasma ACTH concentrations in Mrap1 KO mice” value in assay [1] is reported as “significantly reduced”. Further, the IC50 in assay [2] turned out to be 2.03 nM; in assay [4], 2.01 nM. Also, the “kdis” value in assay [3] was <1e-07 s⁻¹. Further, the on-rate (kon) in assay [3] was determined as 606000 M⁻¹ s⁻¹.

B2: PR302334-26: humanized variant of Series 9 mAb PR302334; VH SEQ ID NO: 277, VL SEQ ID NO: 328 (antibody, V domains shown)
VH: EVQLVESGGGLVQPGGSLRLSCAASGFTFSTYAMSWVRQAPGKGLEWVASIRSGGTTYYPDSVKGRFTISRDNSKNSLYLQMNSLRAEDTAVYYCTRGIDWGQGTTVTVSS
VL: DIVMTQSPDSLAVSLGERATINCKASQSVNNDVAWYQQKPGQPPRLLIYYASNRYTGVPDRFSGSGSGTDFTLTISSLQAEDLAVYFCQQDYSSWTFGGGTKVEIK
modifications: PR302334-18 VH, PR302334-26 VH, PR302334-27 VH; PR302334-10 VL, PR302334-24 VL, PR302334-26 VL, PR302334-4 VL
B2: the “plasma ACTH concentrations in Mrap1 KO mice” value in assay [1] was “markedly reduced”. This molecule displayed an IC50 in assay [2] of 1.47 nM. In assay [3], the “kdis” value is <1e-07 s⁻¹ and the “kon” value turned out to be 329000 M⁻¹ s⁻¹. The molecule further registered an IC50 in assay [4] of 1.24 nM.

These data come from patent publication US20260042834A1, “ANTI-CORTICOTROPIN-RELEASING HORMONE ANTIBODIES AND POLYCYSTIC OVARY SYNDROME” (HBM ALPHA THERAPEUTICS, INC., priority 2022, published 2026).
